Broadly, the Kd is the free concentration of one partner at which half of the binding sites on the other are occupied at equilibrium, for simple one-to-one binding.

T1: CEACAM3 on transfected HeLa cells (human, UniProt P40198 35-252)
T1 construct: whole, on cells; also called HeLa-CEACAM3; HeLa C3
T1 sequence (looked up): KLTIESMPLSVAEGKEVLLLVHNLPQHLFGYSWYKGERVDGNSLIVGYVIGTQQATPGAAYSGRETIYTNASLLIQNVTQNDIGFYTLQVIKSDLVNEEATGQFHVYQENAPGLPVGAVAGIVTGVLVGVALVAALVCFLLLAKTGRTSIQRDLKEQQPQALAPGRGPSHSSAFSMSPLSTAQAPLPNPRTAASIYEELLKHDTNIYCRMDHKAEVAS

T2: CEACAM8 on transfected HeLa cells (human, UniProt P31997 35-320)
T2 construct: whole, on cells; also called HeLa-CEACAM8; HeLa C8
T2 sequence (looked up): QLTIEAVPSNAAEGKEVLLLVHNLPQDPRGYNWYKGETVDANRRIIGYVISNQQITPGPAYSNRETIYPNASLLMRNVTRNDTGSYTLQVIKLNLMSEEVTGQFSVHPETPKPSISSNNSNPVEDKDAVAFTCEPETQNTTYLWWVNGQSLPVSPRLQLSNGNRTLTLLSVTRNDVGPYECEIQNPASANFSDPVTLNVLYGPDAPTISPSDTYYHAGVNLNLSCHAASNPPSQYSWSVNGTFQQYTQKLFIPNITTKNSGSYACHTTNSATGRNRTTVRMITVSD

T3: His-tagged CEACAM1 (human, UniProt P13688 35-428)
T3 construct: 45 kDa SPR analyte; also called CEACAM1-HIS; CEACAM1 analyte
T3 sequence: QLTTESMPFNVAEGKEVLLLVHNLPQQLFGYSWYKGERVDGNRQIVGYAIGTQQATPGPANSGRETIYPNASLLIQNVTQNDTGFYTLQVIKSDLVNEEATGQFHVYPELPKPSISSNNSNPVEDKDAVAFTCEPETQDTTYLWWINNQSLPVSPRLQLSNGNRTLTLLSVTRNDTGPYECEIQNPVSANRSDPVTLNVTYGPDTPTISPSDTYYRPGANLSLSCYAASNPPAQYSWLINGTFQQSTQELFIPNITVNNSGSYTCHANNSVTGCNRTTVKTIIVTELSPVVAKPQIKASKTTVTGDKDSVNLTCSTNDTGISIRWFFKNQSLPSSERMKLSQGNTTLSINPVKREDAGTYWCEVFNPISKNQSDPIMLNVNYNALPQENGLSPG

T4: CEACAM6 on transfected HeLa cells (human, UniProt P40199 35-320)
T4 construct: whole, on cells; also called HeLa-CEACAM6; HeLa C6
T4 sequence (looked up): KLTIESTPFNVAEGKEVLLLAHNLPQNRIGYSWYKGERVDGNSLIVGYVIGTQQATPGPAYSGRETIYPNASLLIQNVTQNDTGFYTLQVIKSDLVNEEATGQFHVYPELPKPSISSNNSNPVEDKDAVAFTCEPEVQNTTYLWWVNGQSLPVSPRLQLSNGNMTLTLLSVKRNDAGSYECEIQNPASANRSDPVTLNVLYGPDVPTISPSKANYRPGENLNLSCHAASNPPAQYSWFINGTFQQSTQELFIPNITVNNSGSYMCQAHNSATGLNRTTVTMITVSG

B1: VH1/Vκ1 (antibody, IgG4, V domains shown)
VH: EVQLLESGGGLVQPGGSLRLSCAASGFIFSSHGMSWVRQAPGKGLEWVATISSGGTYTYYPDSVKGRFTISRDNSKNTLYLQMNSLKAEDTAMYYCARHDFDYDAAWFAYWGQGTLVTVSS
VL: QIVLTQSPALLSLSPGERATMSCSANSSVSYMYWYRQKPGQAPKPWIYLTSNLASGVPARFSGSGSGTDYTLTISSLEAEDFATYYCQQWSSNPPTFGQGTKLEIK
notes: IgG4 (S241P), kappa
B2: VH3/Vκ1 (antibody, IgG4, V domains shown)
VH: B1 VH with P61A, K87R
VL: B1 VL
notes: IgG4 (S241P), kappa
B3: VH2/Vκ2 (antibody, IgG4, V domains shown)
VH: B1 VH with K87R
VL: B1 VL with Q1E, L10T, M21L, S24R, R36Q, K44R, L53R, S55T, A79P
notes: IgG4 (S241P), kappa
B4: VH4/Vκ2 (antibody, IgG4, V domains shown)
VH: B1 VH with A49S, P61A, K87R, M93V
VL: B1 VL with Q1E, L10T, M21L, S24R, R36Q, K44R, L53R, S55T, A79P
notes: IgG4 (S241P), kappa
B5: VH3/Vκ2 (antibody, IgG4, V domains shown)
VH: B1 VH with P61A, K87R
VL: B1 VL with Q1E, L10T, M21L, S24R, R36Q, K44R, L53R, S55T, A79P
notes: IgG4 (S241P), kappa
B6: VH4/Vκ4 (antibody, IgG4, V domains shown)
VH: B1 VH with A49S, P61A, K87R, M93V
VL: B1 VL with Q1E, L10T, M21L, S24R, R36Q, K44R, L53R, S55T, V57I, A79P
notes: IgG4 (S241P), kappa
B7: VH1/Vκ4 (antibody, IgG4, V domains shown)
VH: B1 VH
VL: B1 VL with Q1E, L10T, M21L, S24R, R36Q, K44R, L53R, S55T, V57I, A79P
notes: IgG4 (S241P), kappa
B8: VH3/Vκ4 (antibody, IgG4, V domains shown)
VH: B1 VH with P61A, K87R
VL: B1 VL with Q1E, L10T, M21L, S24R, R36Q, K44R, L53R, S55T, V57I, A79P
notes: IgG4 (S241P), kappa
B9: VH4/Vκ1 (antibody, IgG4, V domains shown)
VH: B1 VH with A49S, P61A, K87R, M93V
VL: B1 VL
notes: IgG4 (S241P), kappa
B10: VH2/Vκ1 (antibody, IgG4, V domains shown)
VH: B1 VH with K87R
VL: B1 VL
notes: IgG4 (S241P), kappa
B11: VH2/Vκ4 (antibody, IgG4, V domains shown)
VH: B1 VH with K87R
VL: B1 VL with Q1E, L10T, M21L, S24R, R36Q, K44R, L53R, S55T, V57I, A79P
notes: IgG4 (S241P), kappa
B12: VH1/Vκ11 (antibody, IgG4, V domains shown)
VH: B1 VH
VL: EIVLTQSPATLSLSPGERATLSCRANSSVSYMYWYQQKPGQAPRPWIYLTSNRATGIPARFSGSGSGTDYTLTISSLEPEDFAVYYCQQWSSNPPTFGQGTKLEIK
notes: IgG4 (S241P), kappa

Numbering of substitutions follows the chain as printed. Names may count otherwise.

The target in one assay is T1, CEACAM3 on transfected HeLa cells. Description: flow cytometry, transfected HeLa. In a few lines:
(§1)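 For each HeLa line stably transfected with one CEACAM family member, staining is given as the measure of binding selectivity. Cultures were held at 37° C with 5.0% CO₂ in DMEM plus 10% fetal bovine serum. The test antibody, a fluorochrome-conjugated isotype-specific secondary antibody and DAPI as viability dye were applied, with acquisition on a Cytoflex and analysis in FlowJo.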
On the technique in general: A flow cytometer gives signals particle by particle.
B1: the binding result is on record as “no binding”.
Still for that read-out and setting: for B2 the value was “no binding”.
With B3, the binding result was “no binding”.
Still for that read-out and setting: for B4 the value was “no binding”; for B5, “no binding”.
On the same count and under the same terms, for B6 the value was “no binding”.
The same measure, in the same setting: for B7 the value was “no binding”; for B8, “no binding”.
Consider B9, for which the binding result is recorded as “no binding”.
Consider B10, for which the binding result is listed as “no binding”.
On the same count and under the same terms, for B11 the value was “no binding”; for B12, “no binding”.

In a further assay the target is T2, CEACAM8 on transfected HeLa cells. Briefly: flow cytometry, transfected HeLa. In a few lines:
as §1
Take B1: the binding result was “no binding”.
The same measure, in the same setting: for B2 the value was “no binding”; for B3, “no binding”.
The same measure, in the same setting: the same measure for B4: “no binding”; for B5: “no binding”; for B6: “no binding”.
On the same count and under the same terms, the same measure for B7: “no binding”; for B8: “no binding”.
With B9, the binding result was “no binding”.
Turning to B10, the binding result was “no binding”.
Take B11: the binding result is given as “no binding”.
Still for that read-out and setting: for B12 the value was “no binding”.

The target of another assay is T3, His-tagged CEACAM1. Description: SPR single-cycle, IgG captured. The protocol: As an alternative approach to assess the binding of the 36 antibody combinations and the three control antibodies to CEACAM1, a kinetic analysis was performed on a Biacore T200 (serial no. 1909913) running Biacore T200 Evaluation Software V2.0.1 (Uppsala, Sweden). All experiments were run at 25° C. with HBS-P+ running buffer (pH 7.4) (GE Healthcare, cat. no. BR100671). All kinetic experiments were performed using His-tagged CEACAM1 as the analyte. For all experiments, antibodies were immobilized onto a Series S Protein A sensor chip surface. For kinetic experiments, the amount of immobilized/captured ligand was limited to avoid mass transfer effects at the surface of the chip with the surface ideally having an analyte binding level (Rₘₐₓ) of 50-150 RUs. Using a MW of 45 kDa for the CEACAM1 analyte, 150 kDa for the antibody ligand (estimated value for IgG), 50 RU for Rmax and the stoichiometry (Sm) as 2 due to the ability of each antibody to bind 2 target molecules, a target response level of ˜75 RUs was set for capture of all the sample antibodies.
Single cycle analysis of the 36 antibody combinations and the three control antibodies was performed on purified antibodies (Vκ1 to Vκ6 variants) or on the supernatants of the transiently transfected HEK EBNA cells (Vκ7 to Vκ12 variants). In some instances, where supernatant was not available, purified chimeric antibody VH0/Vκ0 was spiked into HEK EBNA culture medium to use as a positive control. Antibodies were diluted in HBS-P+ to a concentration of 1 μg/ml (as determined by an IgG quantitation ELISA). At the start of each cycle, antibodies were loaded onto Fc2, Fc3 and Fc4 of a protein A chip and IgG captured at a flow rate of 8 μl/min to give an RU of ˜75. The surface was then allowed to stabilize. Single cycle kinetic data was obtained at a flow rate of 50 μl/min to minimize any potential mass transfer effects. Multiple repeats of the chimeric antibody VH0/Vκ0 were performed to check the stability of the surface and analyte over the kinetic cycles. The signal from the reference channel Fc1 (no antibody) was subtracted from that of Fc2, Fc3 and Fc4 to correct for differences in non-specific binding to a reference surface. A 5 point 2-fold dilution range from 3.125 to 50 nM CEACAM1 without regeneration between each concentration was used.
For the molecule B1, the Kd is 85 nM and the “relative KD to VH0/Vκ0” value was found to be 2.
For B2 the same measures were 135 nM and 3.2.
The like results for B3 were, in that order, 98 nM and 2.3.
In the case of B4, the Kd worked out at 74 nM and the “relative KD to VH0/Vκ0” value came out at 1.8.
The like results for B5 were, in that order, 103 nM and 2.5.
For B6 the same measures were 120 nM and 2.9.
The like results for B7 were, in that order, 131 nM and 3.1.
For the molecule B8, the Kd came out at 81 nM and the “relative KD to VH0/Vκ0” value is 1.9.
For B9 the same measures were 99 nM and 2.4.
As for B10, the Kd came out at 113 nM and the “relative KD to VH0/Vκ0” value stood at 2.7.
For B11 the same measures were 103 nM and 2.5.
Take B12: the Kd is 143 nM and the “relative KD to VH0/Vκ0” value was found to be 3.5.

The target of another assay is T4, CEACAM6 on transfected HeLa cells. Description: flow cytometry, HeLa-CEACAM6 transfectants, % positive cells. On the procedure: Binding selectivity for CEACAM1 was tested for the 24 humanized antibody variants that bound to CEACAM1 (see Table 3), as well as the chimeric control antibody VH0/Vκ0, by flow cytometry on HeLa cells transfected with CEACAM1, 3, 5, 6 and 8. […] There was no evidence of any staining of the HeLa-CEACAM3 or HeLa-CEACAM8 transfectants. […] Due to its favorable affinity to and selectivity for CEACAM1 as well as its favorable expression level, VH1/Vκ8 was chosen as the framework for affinity maturation.
Consider B1, for which the binding result is recorded as “no binding”.
On the same count and under the same terms, for B2 the value was “no binding”; for B3, “no binding”; for B4, “no binding”.
Still for that read-out and setting: the same measure for B5: “no binding”.
On the same count and under the same terms, for B6 the value was “no binding”; for B7, “no binding”; for B8, “no binding”.
B9: the binding result is recorded as “no binding”.
On the same count and under the same terms, for B10 the value was “no binding”.
Regarding B11, the binding result is reported as “no binding”.
Same read-out and setting: for B12 the value was “no binding”.

The values above are taken from patent US20250074980A1 (BRIGHAM AND WOMEN S HOSPITAL, published 2025).
